Where a chain is given by its changes, count along the chain named.
T1: human IL-18BP (interleukin-18 binding protein), mature human isoform A (human, UniProt O95998 31-194)
T1 sequence: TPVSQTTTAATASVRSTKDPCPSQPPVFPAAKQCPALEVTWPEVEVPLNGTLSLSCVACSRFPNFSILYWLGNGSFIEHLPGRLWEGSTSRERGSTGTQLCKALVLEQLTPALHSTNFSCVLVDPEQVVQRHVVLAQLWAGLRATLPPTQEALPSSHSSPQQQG

T2: cynomolgus monkey IL-18BP (cynomolgus monkey)
T2 chain: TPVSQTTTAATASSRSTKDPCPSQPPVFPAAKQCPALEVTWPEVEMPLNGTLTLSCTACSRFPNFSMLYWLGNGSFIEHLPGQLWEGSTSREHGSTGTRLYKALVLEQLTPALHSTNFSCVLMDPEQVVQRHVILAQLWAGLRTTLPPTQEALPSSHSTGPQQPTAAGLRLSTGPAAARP

B1: SA302a (antibody, human IgG1, V domains shown)
VH: QVQLQESGPGLVKPSQTLSLTCTVSGYSITSDYNAHWIRQPPGKGLEWIGYIHYSGSTNYNPSLKSRVTISRDTSKNQFSLKLSSVTAADTAVYYCARNYGSIYVNYFDYWGQGTLVTVSS
VL: EIVLTQSPATLSLSPGERATLSCSASSSVSYMYWYQQKPGQAPRPLIYRTSNLASGIPARFSGSGSGTDFTLTISSLEPEDFAVYYCQQYHSYPTFGGGTKVEIK
B2: SA338a (antibody, human IgG1, V domains shown)
VH: B1 VH with S31Q, S57Q, N59Y, Y100F
VL: B1 VL with Q89L
B3: SA337a (antibody, human IgG1, V domains shown)
VH: B1 VH with S31Q, S57Q
VL: B1 VL with Q89L
B4: SA340a (antibody, human IgG1, V domains shown)
VH: B1 VH with S31Q, S57Q, N59Y, Y100F
VL: B1 VL with T95K
B5: SA339a (antibody, human IgG1, V domains shown)
VH: B1 VH with S31Q, S57Q, N59Y, Y100F
VL: B1 VL with P94V
notes: Humanized; human IgG1, kappa

Legend:
[1] = biological target: T1, human IL-18BP (interleukin-18 binding …); experiment: cell-based or functional assay
[2] = biological target: T2, cynomolgus monkey IL-18BP; experiment: cell-based or functional assay
[3] = biological target: T2, cynomolgus monkey IL-18BP; experiment: cell-based or functional assay
[4] = biological target: T1, human IL-18BP (interleukin-18 binding …); experiment: cell-based or functional assay; remark: listed apart in the source
[5] = biological target: T1, human IL-18BP (interleukin-18 binding …); experiment: BLI (Octet), mAb on AHC biosensor, IL-18BP in solution

Binder | EC50; CCL2 release (ELISA) from human PBMC with IL-12 + IL-18, PBMC assay 1 (endogenous IL-18BP) [1] | EC50; IFNγ release (ELISA) from cynomolgus monkey PBMC with IL-12 + IL-18, assay format 1 (endogenous IL-18BP) [2] | EC50; IFNγ release (ELISA) from cynomolgus monkey PBMC, assay format 2 (pre-complexed IL-18:IL-18BP, plus IL-12) [3] | EC50; IFNγ secretion (ELISA) from purified human NK cells with precomplexed hIL-18:hIL-18BP plus IL-12 [4] | Kd [5]
B1 | 25 nM | 3.4 nM | 0.63 nM | 1.3 nM | –
B2 | 0.9 nM | 0.14 nM | 0.41 nM | 0.43 nM | –
B3 | 4.7 nM | 0.58 nM | 0.39 nM | 0.59 nM | –
B4 | – | – | – | 0.23 nM | –
B5 | – | – | – | – | 0.087 nM

— patent publication US20240417479A1 (LASSEN THERAPEUTICS, published 2024)
